Tests used:
Assay type in all cases: cell-based, human
[1] = tested on: GFP-labeled cancer cell lines; test: Effect of secreted factors on proliferation under DMSO (pScore); details: DMSO control experiments
Text: FIGS. 8A-D show schematic overviews of rScore and bScore calculation. Calculation of rScore and bScore is derived from the data points A, B, C, D marked on GFP-level curves of cells under different treatment conditions, as shown in FIGS. 8A-B. As all cells used in the screen are constitutively expressing GFP, GFP level was used as a proxy for the number of cells. […] Proliferation score (pScore) describes the percent of change in the number of cells after seven days of treatment with a given factor. Rescue score (rScore) quantifies the effect of a given factor on the resistance to a given drug. Relative rescue describes the proportion of cells treated with drug+factor out of untreated cells. The higher this ratio, the stronger effect the factor has on drug resistance. Residual drug growth describes the proportion of cells growth under drug relative to no treatment condition. […] Finally, the rescue score (rScore) is the relative rescue after adding a penalty for drugs with low efficacy. […] Bliss Score (bScore) quantifies the extent of synergism between a given factor and a given drug. Factor effect describes the proportion (or probability) of cells killed by the factor. Drug effect describes the proportion (or probability) of cells killed by the drug. The observed killing effect (observed effect) describes the proportion (or probability) of cells killed by both factor and drug. Assuming drug killing and factor killing are independent events, the expected killing effect (expected effect) is the sum of probabilities D and F excluding events intersection (D*F), which represents a subpopulation of cells that may be sensitive to both the drug and factor. Finally, bliss score (bScore) is the delta between observed and expected killing multiplied by −1 to symbolize the expected decrease in the number of cancer cells following the addition of a factor. […] Upper panel—effect on cells proliferation. […] The number of experiments (out of 79) with pro-proliferative effect (pScore>30%) and anti-proliferative effect (pScore<−30%) were counted for each factor in the secretome library. […]

[2] = tested on: pERK in G361 cell line; test: In-cell western blot of pERK; details: G361 cells treated with the BRAF inhibitor (vemurafenib 2 μM and trametinib 1 nM)
Protocol: PLX4720—BRAFi, 2 μM; PD184352—MEKi, 1 μM, EMAPII—50 ng/ml. P-value of the difference between GFP(drug)/GFP(no-treatment) and GFP(drug+EMAPII)/GFP(no-treatment), at day 7, was calculated by two-sided t-test. ** p<0.01, *** p<0.001. Average rScore (+/−SE) was calculated from at least four different experiments. […] A total of 69 experiments are shown. […] The effect of FGF2 (10 ng/ml), EMAPII (10 ng/ml) or AIMP1 (10 ng/ml) on G361 μmelanoma cells treated with vemurafenib (2 μM) was measured with or without the FGFR inhibitor PD17307 (0.5 μM). Data represent an average of 4 to 8 experiments. P-value was calculated by two-sided t-test. *** p<0.001. Error bars represent standard error. […] P-values were calculated by two-sided t-test relative to luciferase. * p<0.05, Q-value=0.1. […] P-value was calculated by two-sided t-test. *** p<0.001.
In-cell western blot—To validate that EMAPII mediates its effect on resistance to BRAF inhibition via the FGF receptors (FIG. 2G), the melanoma BRAF mutated cell line G361 was seeded in a 384-wells plate at a concentration of 16,000 cells per well. […] Finally, the plate was scanned with Odyssey (Li-cor) using microplate settings (169 μm, […]), and fluorescence intensity was quantified and normalized to the DRAQ level, and then to no drug control (DMSO).

[3] = tested on: BRAF (V600E) colorectal cancer cell lines; test: High-throughput secretome screen of GFP-labeled cells (rScore); details: colorectal cell lines bearing BRAF (V600E); BRAF/MEK inhibitors
Protocol: (§1) Cell lines—All cell lines (Table 1 hereinbelow) were cultured in DMEM supplemented with 100 units/ml Penicillin and Streptomycin, 2 μmM Glutamine, 1 μmM Pyruvate and 10% FCS, and maintained in a humidified incubator at 37° C. and 5% CO2. Cells were routinely tested for Mycoplasma contamination by PCR. To generate stable cell lines constitutively expressing GFP, cells were infected with lentivirus bearing plasmid pLEX_TRC206 and sorted by FACS to enrich for GFP positive population. For the in-vitro experiments, human cancer cell lines which constitutively expressed GFP were treated with various cytotoxic and targeted drugs (see Table 1 hereinbelow); and the effect of different secreted factors (Table 2 hereinbelow) on the innate resistance to a drug based on the cells' GFP level was determined.
(§2) High throughput in-vitro screens—For high-throughput screens or drug dose curves, cells were counted by Vi-Cell XR (Beckman coulter). Cells were seeded on 384 wells plates (Corning, 3712) using the EL406 washer dispenser (BioTek). Liquid handling of medium and drugs was effected by CyBi (WellFlex vario, CyBio). GFP fluorescence of cells was measured at 477/517 nm (excitation/emission) using Cytation3 (BioTek). Due to fluorescence reading bias at plate margins and corners, these margins were discarded for analysis.
High-throughput secretome screens—To screen for the effect of secreted factors on the response of cell lines to different drugs, the following seven-days procedure was performed. On day 0, GFP expressing cells were seeded at 1500-2000 cells per well on 384-wells plates (Corning, 3712), depending on the cell line's proliferation rate. Each plate was seeded with one cell line. […] Cell fluorescence was read at days 1, 4 and 7 by Cytation3, and for some of the experiments at day 6 as well. […]
(2) Based on observations, the plate area spanning rows 4-13 and columns 4-21 was hardly affected by plate margins biases. […] Next, to capture row and column (col) biases for the i-th row and the j-th column, the bias factor was calculated: […]

[4] = tested on: BRAF (V600E) melanoma cell lines; test: High-throughput secretome screen of GFP-labeled cells (rScore, bScore, ranks); details: melanoma cell lines bearing BRAF (V600E); BRAF/MEK inhibitors
Protocol: as §1, §2
High-throughput secretome screens—To screen for the effect of secreted factors on the response of cell lines to different drugs, the following seven-days procedure was performed. On day 0, GFP expressing cells were seeded at 1500-2000 cells per well on 384-wells plates (Corning, 3712), depending on the cell line's proliferation rate. Each plate was seeded with one cell line. At day 1, each plate was treated with the secretome library (Table 2 hereinabove), one well per factor. Immediately afterwards, each plate was treated either with a drug (Table 1 hereinabove) at the EC90 concentration or with DMSO control. The CyBi liquid handler was used to treat each plate with a drug and the secretome library as well as to replace the medium, drug and secreted factors following 3 days of incubation (day 4). Cell fluorescence was read at days 1, 4 and 7 by Cytation3, and for some of the experiments at day 6 as well. Wells of interest were imaged at day 7 using the Operetta (PerkinElmer).
(2) Based on observations, the plate area spanning rows 4-13 and columns 4-21 was hardly affected by plate margins biases. This area is referred to herein as plate core. To control for row specific and column specific biases, plate outliers (Zscore>4 or Zscore<−4) and edges were masked. Next, to capture row and column (col) biases for the i-th row and the j-th column, the bias factor was calculated:
Upon QC completion, 199 experiment plates and 79 control (DMSO) plates were left for further analysis. • 4—Scoring methods-A GFP value for wells without secretome factors was obtained by averaging over the plate internal control wells. Those wells contained the solvents used in the secretome library. pScore: The effect of the secreted factors on proliferation under DMSO was evaluated using pScore (proliferation score). Values were given in percent units.
rScore: The effect of the secreted factors on resistance to anti-cancer drugs was evaluated using rScore (rescue score). rScore was assigned to a given factor under two conditions: • 1. drug effect was >30% (residual drug growth<0.7) • 2. proliferation ratio between factor treated and untreated cells in the presence of drug was higher than one:
rSscore=S−S*residual drug growth
Based on manual inspection of the rScore distribution across the data, the threshold for a potential effect on drug resistance was set to 0.2 (FIGS. 8A-D).
(*) Negative values were considered as zero. […] Groups with less than 4 experiments were discarded, finally resulting in 13 groups of experiments (FIG. 1E). […]

With neuregulin-1 the “effect on proliferation (pScore)” value [1] was “pro-proliferative”.

With “insulin: pro-proliferative secreted factor” the “effect on proliferation (pScore)” value [1] was “pro-proliferative”.

B1: interferon gamma: anti-proliferative secreted factor (protein, UniProt P01579 24-161, looked up)
Interferon gamma: QDPYVKEAENLKKYFNAGHSDVADNGTLFLGILKNWKEESDRKIMQSQIVSFYFKLFKNFKDDQSIQKSVETIKEDMNVKFFNSNKKKRDDFEKLTNYSVTDLNVQRKAIHELIQVMAELSPAAKTGKRKRSQMLFRG
In the case of B1, the “effect on proliferation (pScore)” value [1] is reported as “anti-proliferative”.

B2: AIMP1: aminoacyl tRNA synthetase complex interacting multifunctional protein 1 (protein, UniProt Q12904 2-312, looked up)
Aminoacyl tRNA synthase …: ANNDAVLKRLEQKGAEADQIIEYLKQQVSLLKEKAILQATLREEKKLRVENAKLKKEIEELKQELIQAEIQNGVKQIPFPSGTPLHANSMVSENVIQSTAVTTVSSGTKEQIKGGTGDEKKAKEKIEKKGEKKEKKQQSIAGSADSKPIDVSRLDLRIGCIITARKHPDADSLYVEEVDVGEIAPRTVVSGLVNHVPLEQMQNRMVILLCNLKPAKMRGVLSQAMVMCASSPEKIEILAPPNGSVPGDRITFDAFPGEPDKELNPKKKIWEQIQPDLHTNDECVATYKGVPFEVKGKGVCRAQTMSNSGIK
In the case of B2, the pERK reactivation [2] is reported as “partially reactivate pERK”.

B3: BTC: EGFR ligand beta-cellulin (protein, UniProt P35070 32-111, looked up)
Betacellulin: DGNSTRSPETNGLLCGDPEENCAATTTQSKRKGHFSRCPKQYKHYCIKGRCRFVVAEQTPSCVCDEGYIGARCERVDLFY
For B3, the “effect on drug resistance” value [3] was “mediate resistance only to the colorectal cell lines”.

B4: FGF7: fibroblast growth factor 7, ligand of FGFR2IIIb (protein, UniProt P21781 32-194, looked up)
Fibroblast growth factor 7: CNDMTPEQMATNVNCSSPERHTRSYDYMEGGDIRVRRLFCRTQWYLRIDKRGKVKGTQEMKNNYNIMEIRTVAVGIVAIKGVESEFYLAMNKEGKLYAKKECNEDCNFKELILENHYNTYASAKWTHNGGEMFVALNQKGIPVRGKKTKKEQKTAHFLPMAIT
With B4 the “effect on drug resistance” value [3] was “could confer drug resistance to colorectal cancers” and the “effect on drug resistance” value [4] was “much smaller effect on melanoma cell lines”.

B5: FGF10: fibroblast growth factor 10, ligand of FGFR2IIIb (protein, UniProt O15520 38-208, looked up)
Fibroblast growth factor 10: QALGQDMVSPEATNSSSSSFSSPSSAGRHVRSYNHLQGDVRWRKLFSFTKYFLKIEKNGKVSGTKKENCPYSILEITSVEIGVVAVKAINSNYYLAMNKKGKLYGSKEFNNDCKLKERIEENGYNTYASFNWQHNGRQMYVALNGKGAPRRGQKTRRKNTSAHFLPMVVHS
For B5, the “effect on drug resistance” value [3] was “could confer drug resistance to colorectal cancers” and the “effect on drug resistance” value [4] was “much smaller effect on melanoma cell lines”.
